In patent US20230340098A1:

How the values were obtained:
[1] = target: human GARP/TGFβ1 complex (protein used in ELISA and Octet) (human) (UniProt Q14392); assay: Octet
[2] = target: human GARP/latent TGFβ1 complex on cells (human) (UniProt Q14392); assay: flow cytometry on human GARP/latent TGFβ1 transfected CHO-S cells, goat anti-human IgG(H+L) FITC
[3] = target: human GARP protein not in any GARP/TGFβ1 complex (protein used in ELISA and Octet) (human) (UniProt Q14392); assay: Octet
human GARP protein not in any GARP/TGFβ1 complex (protein used in ELISA and Octet) (human), sequence (Q14392 20-627 limits assumed, one chain of several): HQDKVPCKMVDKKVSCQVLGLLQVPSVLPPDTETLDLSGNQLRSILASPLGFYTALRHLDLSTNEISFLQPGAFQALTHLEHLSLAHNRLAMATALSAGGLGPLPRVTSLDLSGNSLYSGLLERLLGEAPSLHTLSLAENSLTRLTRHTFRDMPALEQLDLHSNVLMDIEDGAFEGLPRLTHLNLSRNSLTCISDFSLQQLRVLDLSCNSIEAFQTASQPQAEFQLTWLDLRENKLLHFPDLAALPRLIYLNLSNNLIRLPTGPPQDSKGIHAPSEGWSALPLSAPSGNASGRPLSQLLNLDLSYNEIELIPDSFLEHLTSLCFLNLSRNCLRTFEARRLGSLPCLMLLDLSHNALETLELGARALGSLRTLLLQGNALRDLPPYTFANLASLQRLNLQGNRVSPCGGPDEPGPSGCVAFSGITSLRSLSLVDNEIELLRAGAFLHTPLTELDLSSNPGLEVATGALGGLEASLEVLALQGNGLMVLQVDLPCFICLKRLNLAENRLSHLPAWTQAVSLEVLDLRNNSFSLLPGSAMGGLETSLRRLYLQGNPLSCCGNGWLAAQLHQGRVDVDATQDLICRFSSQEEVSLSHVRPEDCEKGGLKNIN

## GARP ref. Ab1, an ABBV-151 analog (antibody)
[1]
  Kd: 0.428 nM
[2]
  EC50 (read off the curve): 0.3 µg/mL

## GARP ref. Ab2, a DS-1005a analog (antibody)
[3]
  Kd: 2.02 nM
[1]
  Kd: 4.12 nM
